Measurements reported in patent US20230235004A1 (published 2023).

T1: human MAdCAM expressed on cells (human, UniProt Q13477 19-382)
T1 construct: whole, on cells
T1 sequence (looked up): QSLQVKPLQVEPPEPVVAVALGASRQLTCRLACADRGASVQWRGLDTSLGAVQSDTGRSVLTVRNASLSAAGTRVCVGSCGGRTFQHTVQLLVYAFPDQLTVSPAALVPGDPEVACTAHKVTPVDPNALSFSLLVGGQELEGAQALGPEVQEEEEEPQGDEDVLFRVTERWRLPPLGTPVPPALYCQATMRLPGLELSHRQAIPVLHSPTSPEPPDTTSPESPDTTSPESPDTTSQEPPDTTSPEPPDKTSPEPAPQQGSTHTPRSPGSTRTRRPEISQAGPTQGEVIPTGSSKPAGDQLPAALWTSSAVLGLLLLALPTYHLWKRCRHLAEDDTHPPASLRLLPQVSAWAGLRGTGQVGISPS

T2: mouse MAdCAM expressed on cells (mouse, UniProt Q61826 22-405)
T2 construct: whole, on cells
T2 sequence (looked up): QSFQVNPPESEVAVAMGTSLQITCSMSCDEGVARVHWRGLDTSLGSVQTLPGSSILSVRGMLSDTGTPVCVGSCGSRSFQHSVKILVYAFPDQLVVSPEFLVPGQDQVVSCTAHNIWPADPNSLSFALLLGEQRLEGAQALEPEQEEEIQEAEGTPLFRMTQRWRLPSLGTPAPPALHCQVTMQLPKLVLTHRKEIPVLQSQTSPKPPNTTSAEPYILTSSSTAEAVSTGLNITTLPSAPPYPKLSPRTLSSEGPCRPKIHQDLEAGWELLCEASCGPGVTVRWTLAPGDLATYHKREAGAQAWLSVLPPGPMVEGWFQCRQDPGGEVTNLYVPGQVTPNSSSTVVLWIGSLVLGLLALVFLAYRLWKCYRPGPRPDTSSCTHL


How the values were obtained:
[1] = biological target: T1, human MAdCAM expressed on cells; experiment: cell binding
[2] = biological target: T2, mouse MAdCAM expressed on cells; experiment: cell binding

Row | binding result [1] | binding result [2] | Binder
1 | binds | no binding | MAdCAM antibody Table 1 clone 54 (scFv) scFv: EVQLLESGGGLVQPGGSLRLSCAASGFTFGDYAMSWVRQAPGKGLEWVAVVSYDGTNKYYADSVKGRFTISRDNSKNTLYLQMNSLRAEDTAVYYCAKDICSSTSCYFDLWGRGTLVTVSSGGGGSGGGGSGGGGSGGGGSDIQMTQSPSSLSASVGDRVTITCRASQNINNYVNWYQQKPGKAPKLLIYDASNLETGVPSRFSGSGSGTDFTLTISSLQPEDFATYYCQQANSFPPTFGQGTRLEIK
2 | binds | binds | MAdCAM antibody Table 1 clone 3 (scFv) scFv: QVQLVQSGAEVKKPGASVKVSCKASGYPFIGQYLHWVRQAPGQGLEWMGIINPSGGSTSYAQKFQGRVTMTRDTSTSTVYMELSSLRSEDTAVYYCAREGRLSYGMDAWGQGTLVTVSSGGGGSGGGGSGGGGSGGGGSDIQMTQSPSSLSASVGDRVTITCRASQSISSYLAWYQQKPGKAPKLLIYGASTLESGVPSRFSGSGSGTDFTLTISSLQPEDFATYYCQQTWGPPFTFGQGTKLEIK
3 | binds | no binding | MAdCAM antibody Table 1 clone 47 (scFv) scFv: EVQLLESGGGLVQPGGSLRLSCAASGFSFSDYGMHWVRQAPGKGLEWVSAISGSGGSTYYADSVKGRFTISRDNSKNTLYLQMNSLRAEDTAVYYCARDGGWQPAAILDYWGQGTLVTVSSGGGGSGGGGSGGGGSGGGGSDIQMTQSPSSLSASVGDRVTITCRASQGISNNLNWYQQKPGKAPKLLIYDASNLETGVPSRFSGSGSGTDFTLTISSLQPEDFATYYCQQSYSTPLTFGGGTKVEIK
4 | binds | no binding | MAdCAM antibody Table 1 clone 49 (scFv) scFv: QVQLVQSGAEVKKPGASVKVSCKASGDTFTGYYIHWVRQAPGQGLEWMGWINPNSGGTNYAQKFQGRVTMTRDTSTSTVYMELSSLRSEDTAVYYCARSGLWLGSYYGMDVWGQGTLVTVSSGGGGSGGGGSGGGGSGGGGSDIQMTQSPSSLSASVGDRVTITCRASQTISIWLAWYQQKPGKAPKLLIYDASTLQSGVPSRFSGSGSGTDFTLTISSLQPEDFATYYCQQYSSYPLTFGQGTKVEIK
5 | binds | no binding | MAdCAM antibody Table 1 clone 13 (scFv) scFv: EVQLLESGGGLVQPGGSLRLSCAASGFTFDDYAMHWVRQAPGKGLEWVSYIDASGTTIYYADSVKGRFTISRDNSKNTLYLQMNSLRAEDTAVYYCAKDQAAAGYWYFDLWGRGTLVTVSSGGGGSGGGGSGGGGSGGGGSDIQMTQSPSSLSASVGDRVTITCQASQDISNYLNWYQQKPGKAPKLLIYKASTLESGVPSRFSGSGSGTDFTLTISSLQPEDFATYYCQQSYSTPITFGQGTRLEIK
6 | binds | no binding | MAdCAM antibody Table 1 clone 12 (scFv) scFv: QVQLVQSGAEVKKPGASVKVSCKASGYTFTGYYMHWVRQAPGQGLEWMGWIGPNSGDTNYAQKFQGRVTMTRDTSTSTVYMELSSLRSEDTAVYYCARDLDHNWYFDLWGRGTLVTVSSGGGGSGGGGSGGGGSGGGGSDIVMTQSPLSLPVTPGEPASISCRSSQSLLHSNGYNYLDWYLQKPGQSPQLLIYSSSNRAPGVPDRFSGSGSGTDFTLKISRVEAEDVGVYYCMQALHIPLTFGGGTKVEIK
7 | binds | no binding | MAdCAM antibody Table 1 clone 51 (scFv) scFv: EVQLLESGGGLVQPGGSLRLSCAASGFTFNNYGMNWVRQAPGKGLEWVSRINSDGSSTSYADSVKGRFTISRDNSKNTLYLQMNSLRAEDTAVYYCARGAYYYYYMDVWGQGTLVTVSSGGGGSGGGGSGGGGSGGGGSEIVMTQSPATLSVSPGERATLSCRASQSVSGSYLAWYQQKPGQAPRLLIYATSSRASGIPARFSGSGSGTEFTLTISSLQSEDFAVYYCQQYYSGLTFGQGTKVEIK
8 | binds | no binding | MAdCAM antibody Table 1 clone 53 (scFv) scFv: QVQLVQSGAEVKKPGASVKVSCKASGYTFTSYDINWVRQAPGQGLEWMGWMNPNSGNTGYAQKFQGRVTMTRDTSTSTVYMELSSLRSEDTAVYYCAKDSDYSNLLWDYWGQGTLVTVSSGGGGSGGGGSGGGGSGGGGSDIQMTQSPSSLSASVGDRVTITCRASQDITNDLGWYQQKPGKAPKLLIYQASSLESGVPSRFSGSGSGTDFTLTISSLQPEDFATYYCQQSYTIPLTFGQGTKVEIK
9 | binds | no binding | MAdCAM antibody Table 1 clone 11 (scFv) scFv: QVQLVQSGAEVKKPGASVKVSCKASGYTFTTYYMHWVRQAPGQGLEWMGGFDPEDGETIYAQKFQGRVTMTRDTSTSTVYMELSSLRSEDTAVYYCARHAVAGAVGAGYYYYGMDVWGQGTMVTVSSGGGGSGGGGSGGGGSGGGGSDIQMTQSPSSLSASVGDRVTITCRASESISNWLAWYQQKPGKAPKLLIYAASTLQSGVPSRFSGSGSGTDFTLTISSLQPEDFATYYCQQSYSVPFTFGPGTKVDIK
10 | binds | no binding | MAdCAM antibody Table 1 clone 14 (scFv) scFv: QVQLVQSGAEVKKPGSSVKVSCKASGYTFTDYHIHWVRQAPGQGLEWMGGIVPRSGSTTYAQKFQGRVTITADESTSTAYMELSSLRSEDTAVYYCAKDESSGWYYFDYWGQGTLVTVSSGGGGSGGGGSGGGGSGGGGSDIVMTQSPLSLPVTPGEPASISCRSSQSLLHSNGYNYLDWYLQKPGQSPQLLIYSAYNRASGVPDRFSGSGSGTDFTLKISRVEAEDVGVYYCMQALQTPLTFGQGTKVEIK
11 | binds | no binding | MAdCAM antibody Table 1 clone 46 (scFv) scFv: EVQLLESGGGLVQPGGSLRLSCAASGFSVSSNYMSWVRQAPGKGLEWVAGISYDGSSKPYADSVKGRFTISRDNSKNTLYLQMNSLRAEDTAVYYCARSRGIAARPLQHWGQGTLVTVSSGGGGSGGGGSGGGGSGGGGSDIVMTQSPDSLAVSLGERATINCKSSQSVLYSSNNKNYLAWYQQKPGQPPKLLIYQASTRQSGVPDRFSGSGSGTDFTLTISSLQAEDVAVYYCHQYYGHPPTFGGGTKVEIK
12 | binds | no binding | MAdCAM antibody Table 1 clone 48 (scFv) scFv: EVQLLESGGGLVQPGGSLRLSCAASGFTFSDHGMHWVRQAPGKGLEWVSVIYGGESTYYADSVKGRFTISRDNSKNTLYLQMNSLRAEDTAVYYCARDPAVAGGGIFDYWGQGTLVTVSSGGGGSGGGGSGGGGSGGGGSDIQMTQSPSSLSASVGDRVTITCRASQGISNYLAWYQQKPGKAPKLLIYDASNLETGVPSRFSGSGSGTDFTLTISSLQPEDFATYYCQQSYSTCYTFGQGTKLEIK
13 | binds | no binding | MAdCAM antibody Table 1 clone 50 (scFv) scFv: QVQLVQSGAEVKKPGASVKVSCKASGYTFTSYDINWVRQAPGQGLEWMGWINPNSGTTGYAQKFQGRVTMTRDTSTSTVYMELSSLRSEDTAVYYCARSPYYYYGMDVWGQGTTVTVSSGGGGSGGGGSGGGGSGGGGSDIQMTQSPSSLSASVGDRVTITCRASHFISRWVAWYQQKPGKAPKLLIYAASTLQSGVPSRFSGSGSGTDFTLTISSLQPEDFATYYCQQSYSGISFGPGTKVDIK
14 | binds | no binding | MAdCAM antibody Table 1 clone 55 (scFv) scFv: QVQLVQSGAEVKKPGASVKVSCKASGYTFTSYYMHWVRQAPGQGLEWMGIIDPSGGSTSYAQKFQGRVTMTRDTSTSTVYMELSSLRSEDTAVYYCAREEWSSGGVGYFDYWGQGTLVTVSSGGGGSGGGGSGGGGSGGGGSDIQMTQSPSSLSASVGDRVTITCRASQGISSYLAWYQQKPGKAPKLLIYATSSLQTGVPSRFSGSGSGTDFTLTISSLQPEDFATYYCQQTYSIPITFGQGTRLEIK
15 | binds | no binding | MAdCAM antibody Table 1 clone 58 (scFv) scFv: QVQLVQSGAEVKKPGASVKVSCKASGYTFTGYYMHWVRQAPGQGLEWMGIINPSGGNTKYAQKFQGRVTMTRDTSTSTVYMELSSLRSEDTAVYYCTTADYYYYMDVWGKGTTVTVSSGGGGSGGGGSGGGGSGGGGSDIQMTQSPSSLSASVGDRVTITCRASQGISNYLAWYQQKPGKAPKLLIYAASSLQSGVPSRFSGSGSGTDFTLTISSLQPEDFATYYCQQYYSNADFGQGTKVEIK
16 | binds | no binding | MAdCAM antibody Table 1 clone 52 (scFv) scFv: EVQLLESGGGLVQPGGSLRLSCAASGFTFSNSDMNWVRQAPGKGLEWVAHIWNDGSQKYYADSVKGRFTISRDNSKNTLYLQMNSLRAEDTAVYYCARDRTDPGYSSAMDVWGQGTTVTVSSGGGGSGGGGSGGGGSGGGGSDIQMTQSPSSLSASVGDRVTITCRASQDIRNYLGWYQQKPGKAPKLLIYDASSLETGVPSRFSGSGSGTDFTLTISSLQPEDFATYYCQQATSLPLTFGGGTKVEIK
17 | binds | no binding | MAdCAM antibody Table 1 clone 57 (scFv) scFv: QVQLVQSGAEVKKPGASVKVSCKASGYTFTSYYMHWVRQAPGQGLEWMGIINPSGGSTSYAQKFQGRVTMTRDTSTSTVYMELSSLRSEDTAVYYCARDSVAGTGGRYYGMDVWGQGTLVTVSSGGGGSGGGGSGGGGSGGGGSDIQMTQSPSSLSASVGDRVTITCRASQGISNYFAWYQQKPGKAPKLLIYAASSLQGGVPSRFSGSGSGTDFTLTISSLQPEDFATYYCQQSYSLPYTFGQGTKLEIK
